B1: ADP-ribosylation factor 1 (Saccharomyces cerevisiae), P11076 (parent)
chain: MGLFASKLFSNLFGNKEMRILMVGLDGAGKTTVLYKLKLGEVITTIPTIGFNVETVQYKNISFTVWDVGGQDRIRSLWRHYYRNTEGVIFVVDSNDRSRIGEAREVMQRMLNEDELRNAAWLVFANKQDLPEAMSAAEITEKLGLHSIRNRPWFIQATCATSGEGLYEGLEWLSNSLKNST
partner: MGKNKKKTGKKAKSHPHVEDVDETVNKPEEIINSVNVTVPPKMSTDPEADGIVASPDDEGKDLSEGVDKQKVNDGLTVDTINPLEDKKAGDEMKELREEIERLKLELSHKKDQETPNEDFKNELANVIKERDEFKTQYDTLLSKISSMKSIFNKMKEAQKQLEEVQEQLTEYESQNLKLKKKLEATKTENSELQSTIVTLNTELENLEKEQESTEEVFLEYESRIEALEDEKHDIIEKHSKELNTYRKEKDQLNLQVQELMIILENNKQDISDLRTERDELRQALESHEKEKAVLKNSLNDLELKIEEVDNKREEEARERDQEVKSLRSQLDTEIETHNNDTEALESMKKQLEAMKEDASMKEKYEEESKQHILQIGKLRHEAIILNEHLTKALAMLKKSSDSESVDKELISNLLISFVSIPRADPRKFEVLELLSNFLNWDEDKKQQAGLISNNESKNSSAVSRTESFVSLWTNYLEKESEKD
B2: GRIP domain-containing protein RUD3 (Saccharomyces cerevisiae), Q12234 (parent)
chain: B1 partner
partner: B1 chain

Variants of: B1
Conditions: with rud3_yeast RUD3, Q12234

Question: With T32N as the variant, how does the “effect of a mutation on the interaction” value read?
Answer: decreasing interaction

Variants of: B2
Conditions: with arf1_yeast ARF1, P11076

Question: With L410A as the variant, how does the “effect of a mutation on the interaction” value read?
Answer: decreasing interaction

From IntAct's records for PubMed 15504911
